Data reported in paper PMC9667317, “Metal migration and subunit swapping in ALS-linked SOD1: Zn^2+ transfer between mutant and wild-type occurs faster than the rate of heterodimerization” (The Journal of Biological Chemistry, 2022).

Assays:
Details in all cases: both partners purified
[1] = target: T1, WT Cu, Zn superoxide dismutase-1 (SOD1), recombinant human (human, UniProt P00441 1-154); assay: capillary electrophoresis; both homodimers as 4Zn-SOD1; 15 μM dimer each ([SOD1]total = 30 μM), followed over time; 10 mM potassium phosphate pH 7.4, CE at 22 °C, storage at 15 °C; KHet assumed from the fit extrapolated to t = 5000 min
T1 construct: Cu, Zn superoxide dismutase-1 (SOD1), human; Homodimer; intramolecular disulfide bond intact; N-terminus probably acetylated (surmise); also called WT SOD1; WT apo-SOD1; source: demetalated by dialysis, remetalated with ZnSO4 where stated

[2] = target: T1, WT Cu, Zn superoxide dismutase-1 …; assay: capillary electrophoresis; both homodimers apo (metal-free, disulfide intact), mixed at 15 μM dimer each ([SOD1]total = 30 μM), followed over time; 10 mM potassium phosphate pH 7.4, CE at 22 °C, storage at 15 °C; KHet assumed from the fit extrapolated to t = 5000 min
[3] = target: T1, WT Cu, Zn superoxide dismutase-1 …; assay: capillary electrophoresis; binder (first named) as 4Zn-SOD1, target (second named, WT or TD) as apo-SOD1; 15 μM dimer each ([SOD1]total = 30 μM), followed over time; 10 mM potassium phosphate pH 7.4, CE at 22 °C, storage at 15 °C; KHet assumed from the fit extrapolated to t = 5000 min
[4] = target: T1, WT Cu, Zn superoxide dismutase-1 …; assay: capillary electrophoresis; binder (first named) as apo-SOD1, target (second named, WT or TD) as 4Zn-SOD1; 15 μM dimer each ([SOD1]total = 30 μM), followed over time; 10 mM potassium phosphate pH 7.4, CE at 22 °C, storage at 15 °C; KHet assumed from the fit extrapolated to t = 5000 min

T1 sequence (P00441 whole entry): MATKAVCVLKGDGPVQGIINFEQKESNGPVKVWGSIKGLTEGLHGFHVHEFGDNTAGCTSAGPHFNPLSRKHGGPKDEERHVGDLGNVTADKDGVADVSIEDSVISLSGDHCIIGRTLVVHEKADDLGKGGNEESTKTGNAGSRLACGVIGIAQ

- assumed KHet (t = 5000 min) [1]: 2.13 ± 0.71
- kHet (rate constant of heterodimerization) [1]: 0.0038 min⁻¹
- assumed KHet (t = 5000 min) [2]: 2.34 ± 0.31
- kHet (rate constant of heterodimerization) [2]: 0.0128 min⁻¹
- assumed KHet (t = 5000 min) [3]: 2.09 ± 0.14
- kHet (rate constant of heterodimerization) [3]: 0.0041 min⁻¹
- assumed KHet (t = 5000 min) [4]: 2.27 ± 0.08
- kHet (rate constant of heterodimerization) [4]: 0.0066 min⁻¹
B1: triply deamidated SOD1 (modeled with N26D/N131D/N139D substitutions), recombinant human (enzyme)
chain: not shown
notes: Cu, Zn superoxide dismutase-1 (SOD1), human, triple mutant N26D/N131D/N139D; printed mass of the apo subunit 15847 Da; Homodimer; disulfide intact; also called TD SOD1; TD; source: demetalated by dialysis, remetalated with ZnSO4 where stated
